Assay results: the supplement of paper PMC10724198
± gives the standard deviation of the averaged measurements.

The sequences below were run on Saccharomyces cerevisiae (assay: protein stability index of tFT-peptide fusion (C-terminal peptide) (PSI (0-1 scale)); higher = more stable (slower turnover)). Conditions: genetic background: das1 deletion; temperature: 30 C.
Protocol: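 MPS profiling in S. cerevisiae of the yeast C-terminome library: the last 12 aa of each annotated ORF are fused to the C-terminus of a sfGFP-mCherry timer, after a GGGS linker. Cells are FACS-sorted into 8 mCherry/sfGFP bins and deep-sequenced. PSI runs from 0 (unstable) to 1 (stable); wild type and das1Δ backgrounds, two technical replicates each.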
LGSSMVQGRSIR [YPK1 C-terminal 12 aa] was tested, and the protein stability index was 0.71 ± 0.024.
Work on LHMNTNRLAGIR [SEC9 C-terminal 12 aa] yielded a protein stability index of 0.7133 ± 0.0013.
In the case of LHTLYLRPASAI [SSN8 C-terminal 12 aa], the protein stability index is reported as 0.701 ± 0.021.
With LIDVVPRRPLPQ [HAP5 C-terminal 12 aa] the protein stability index was 0.734 ± 0.033.
Work on LIWELGDGQSGQ [INO4 C-terminal 12 aa] yielded a protein stability index of 0.7444 ± 0.0017.
LKALANETMSRI [VPS16 C-terminal 12 aa] showed a protein stability index of 0.712 ± 0.011.
With LKRISDIQADSS [PET494 C-terminal 12 aa] the protein stability index was 0.692 ± 0.031.
LKSLKKNLTRDR [MTF2 C-terminal 12 aa] was tested, and the protein stability index was 0.722 ± 0.033.
LKSQSLTTGWSL [MNS1 C-terminal 12 aa] was tested, and the protein stability index was 0.7194 ± 0.0048.
LLCSDLVNGLMQ [SEC21 C-terminal 12 aa] was tested, and the protein stability index was 0.706 ± 0.029.
In the case of LLDGGDGDEDAV [GON7 C-terminal 12 aa], the protein stability index is reported as 0.6942 ± 0.002.
In the case of “LLEAFLRKEQKV [YGR174W-A C-terminal 12 aa]”, the protein stability index is reported as 0.596 ± 0.012.
LLEDQVPVETKA [PYC1 C-terminal 12 aa] was tested, and the protein stability index was 0.551 ± 0.018.
LLEKLDIKDKKE [YVC1 C-terminal 12 aa] was tested, and the protein stability index was 0.661 ± 0.018.
LLISMIAAGILL [GAS2 C-terminal 12 aa] was tested, and the protein stability index was 0.5322 ± 0.0015.
LLKQLKQGKISV [NOT3 C-terminal 12 aa] showed a protein stability index of 0.669 ± 0.022.
With LLLGTVSATNAI [YPL062W C-terminal 12 aa] the protein stability index was 0.6878 ± 0.004.
Work on LLPGNTNLPWTS [ERG12 C-terminal 12 aa] yielded a protein stability index of 0.7093 ± 0.0045.
For LLQVYDRVKASM [TOP3 C-terminal 12 aa], the protein stability index was 0.67 ± 0.00086.
“LLRPPKPPLFCC [YGL123C-A C-terminal 12 aa]” was tested, and the protein stability index was 0.6368 ± 0.0044.
Work on LLRPRSPVQKAQ [KAR4 C-terminal 12 aa] yielded a protein stability index of 0.69 ± 0.025.
In the case of LLVEKKDIPSNS [PRM4 C-terminal 12 aa], the protein stability index is reported as 0.6965 ± 0.001.
LLYCNIYVYYRF [KAR1 C-terminal 12 aa] showed a protein stability index of 0.15 ± 0.014.
With LMRRFVLEFEKQ [SEC6 C-terminal 12 aa] the protein stability index was 0.716 ± 0.0098.
In the case of LNEKESTKLFYR [ELP6 C-terminal 12 aa], the protein stability index is reported as 0.6871 ± 0.002.
Work on LNELGEFKVINS [NPR2 C-terminal 12 aa] yielded a protein stability index of 0.689 ± 0.014.
For LNKKREKKDETE [CSM1 C-terminal 12 aa], the protein stability index was 0.707 ± 0.038.
Sequence LNNIKTIIEGPE [XYL2 C-terminal 12 aa] has a protein stability index of 0.676 ± 0.058.
For LPAEILSNEPLK [YML119W C-terminal 12 aa], the protein stability index was 0.688 ± 0.01.
Sequence LPEPNFFRKAAF [AXL1 C-terminal 12 aa] has a protein stability index of 0.7202 ± 0.0035.
In the case of LPFGCVDDVNRQ [MSK1 C-terminal 12 aa], the protein stability index is reported as 0.706 ± 0.05.
LPKIIKKHQRLS [MRH4 C-terminal 12 aa] gave a protein stability index of 0.724 ± 0.056.
LPPGRVFSRVRR [MRPL35 C-terminal 12 aa] showed a protein stability index of 0.683 ± 0.022.
In the case of LPRDSAMSAPDI [YMR085W C-terminal 12 aa], the protein stability index is reported as 0.7049 ± 0.001.
Work on LQMVKNAKDLST [CYR1 C-terminal 12 aa] yielded a protein stability index of 0.6866 ± 0.0026.
LQSDKDLQSLLT [CUE1 C-terminal 12 aa] gave a protein stability index of 0.698 ± 0.0011.
With LRSKVKNHAQRH [YLR428C C-terminal 12 aa] the protein stability index was 0.714 ± 0.018.
For LRTVASRLKERY [PNO1 C-terminal 12 aa], the protein stability index was 0.698 ± 0.013.
Sequence LSEEALSTCCCS [YJL118W C-terminal 12 aa] has a protein stability index of 0.7528 ± 0.0039.
LSFADYRKKLLK [SET3 C-terminal 12 aa] was tested, and the protein stability index was 0.70897 ± 0.00015.
For “LTVTRWKLQITG [YPR160W-A C-terminal 12 aa]”, the protein stability index was 0.659 ± 0.013.
LVSMTILVSGLI [SHE9 C-terminal 12 aa] showed a protein stability index of 0.246 ± 0.025.
In the case of LWDNKPVEKKRQ [SHH4 C-terminal 12 aa], the protein stability index is reported as 0.712 ± 0.023.
LYEEHQQMLDKQ [IPI3 C-terminal 12 aa] was tested, and the protein stability index was 0.7227 ± 0.0019.
For “LYSLPISVPCTS [YDL086C-A C-terminal 12 aa]”, the protein stability index was 0.292 ± 0.013.
For MALLAMVMGVDM [URA2 C-terminal 12 aa], the protein stability index was 0.6024 ± 0.0046.
MDTLEEMFTEEP [PRP42 C-terminal 12 aa] was tested, and the protein stability index was 0.726 ± 0.027.
Work on MIVRFFKKVTFR [CHS1 C-terminal 12 aa] yielded a protein stability index of 0.7384 ± 0.0049.
MIWKWLIEDKKN [MRS2 C-terminal 12 aa] gave a protein stability index of 0.72 ± 0.011.
Work on MKDFSKNEQKEK [SEY1 C-terminal 12 aa] yielded a protein stability index of 0.719 ± 0.037.
Sequence MKHTKKLQLDKV [PKP2 C-terminal 12 aa] has a protein stability index of 0.69 ± 0.007.
MNEIDARIFEYK [SPO11 C-terminal 12 aa] gave a protein stability index of 0.764 ± 0.024.
MQLARRIRGQFI [CSE4 C-terminal 12 aa] showed a protein stability index of 0.691 ± 0.0093.
Sequence MRIRSDMSMMRW [COR1 C-terminal 12 aa] has a protein stability index of 0.71 ± 0.0094.
MRNNNDTTFKSF [YNL013C C-terminal 12 aa] gave a protein stability index of 0.685 ± 0.015.
Work on MSLMRKAYHFWC [BAP2 C-terminal 12 aa] yielded a protein stability index of 0.726 ± 0.024.
MTMILSRMSCSA [IRA2 C-terminal 12 aa] gave a protein stability index of 0.622 ± 0.014.
For MVEAAALKRNKK [ARO10 C-terminal 12 aa], the protein stability index was 0.686 ± 0.049.
MVYKPEDSLLKI [MTR2 C-terminal 12 aa] showed a protein stability index of 0.684 ± 0.039.
MYCASFQLPANV [TRM5 C-terminal 12 aa] gave a protein stability index of 0.673 ± 0.015.
Sequence NDEEKQALAEKA [YLR297W C-terminal 12 aa] has a protein stability index of 0.683 ± 0.011.
Sequence NDGTSANSACSC [VPS21 C-terminal 12 aa] has a protein stability index of 0.715 ± 0.012.
For NDITLAVYTSAQ [EGO2 C-terminal 12 aa], the protein stability index was 0.6895 ± 0.00082.
For NEDLGLSDIKVE [ZPR1 C-terminal 12 aa], the protein stability index was 0.694 ± 0.0078.
NEQEINKIFEPE [HXT14 C-terminal 12 aa] gave a protein stability index of 0.694 ± 0.01.
For NEQVKKFFLNNV [NAS6 C-terminal 12 aa], the protein stability index was 0.701 ± 0.029.
NGLNWEVIEYHA [HRI1 C-terminal 12 aa] was tested, and the protein stability index was 0.724 ± 0.008.
Sequence NGNNAESGETKQ [SSC1 C-terminal 12 aa] has a protein stability index of 0.6813 ± 0.0068.
Sequence NKAPSWLLTALE [OCA1 C-terminal 12 aa] has a protein stability index of 0.6834 ± 0.0031.
Work on NKKRLSVDYILT [USV1 C-terminal 12 aa] yielded a protein stability index of 0.689 ± 0.05.
NKNKNKVTKGRR [RAD27 C-terminal 12 aa] gave a protein stability index of 0.668 ± 0.024.
Sequence NKVDINMEQEKF [UGO1 C-terminal 12 aa] has a protein stability index of 0.699 ± 0.043.
Sequence NLANDEQPLHNL [MDM30 C-terminal 12 aa] has a protein stability index of 0.699 ± 0.02.
NLGYSKDQVFKF [MCR1 C-terminal 12 aa] showed a protein stability index of 0.708 ± 0.0082.
Sequence NMIIDTLGGNEK [COQ6 C-terminal 12 aa] has a protein stability index of 0.735 ± 0.019.
NNLNTNTSTTTQ [MIT1 C-terminal 12 aa] showed a protein stability index of 0.682 ± 0.011.
In the case of NNLQSFYFDNSN [BCK2 C-terminal 12 aa], the protein stability index is reported as 0.689 ± 0.018.
NNNIANDYMDID [YML053C C-terminal 12 aa] showed a protein stability index of 0.7268 ± 0.005.
“NNRYKNFSPKRL [YHR071C-A C-terminal 12 aa]” gave a protein stability index of 0.746 ± 0.011.
For NPTIGRDSKKAV [PEX30 C-terminal 12 aa], the protein stability index was 0.694 ± 0.011.
For “NPWKSQIRDWKN [YBL100W-C C-terminal 12 aa]”, the protein stability index was 0.704 ± 0.018.
Work on NRLKGQNSHQQR [RGS2 C-terminal 12 aa] yielded a protein stability index of 0.7072 ± 0.0026.
